The target of test [1] is human GLP-1 receptor (hGLP-1R) (human, UniProt P43220 24-463). As to the kind of experiment: cell-based or functional assay.
For test [2], the target named is human glucagon receptor (hGCGR) (human, UniProt P47871 26-477). The experiment in a line: cell-based or functional assay.

Starred links: 1 amine or outer side, 2 acyl side, 3 side chain; linkers in the order of their positions; H or OH if unused. Non-standard residues stand in square brackets, D forms with d. Groups on a side chain read outwards from the residue. Primed or numbered codes have the meaning given here. No end group written: not given here. *: point of attachment. C20 diacid = O=C(O)CCCCCCCCCCCCCCCCCCC(=O)*; C18 diacid = O=C(O)CCCCCCCCCCCCCCCCC(=O)*; γGlu = O=C(O)[C@H](CCC(=O)[*:2])N[*:1]; Stearoyl = CCCCCCCCCCCCCCCCCC(=O)*; Palmitoyl = CCCCCCCCCCCCCCCC(=O)*; αMeF = C[C@](N)(Cc1ccccc1)C(=O)O; Myristoyl = CCCCCCCCCCCCCC(=O)*; PEG2′ = polyethylene glycol 2; AEEA = NCCOCCOCC(=O)O; Aib = CC(C)(N)C(=O)O

Chain of human glucagon receptor (hGCGR) (P47871 26-477): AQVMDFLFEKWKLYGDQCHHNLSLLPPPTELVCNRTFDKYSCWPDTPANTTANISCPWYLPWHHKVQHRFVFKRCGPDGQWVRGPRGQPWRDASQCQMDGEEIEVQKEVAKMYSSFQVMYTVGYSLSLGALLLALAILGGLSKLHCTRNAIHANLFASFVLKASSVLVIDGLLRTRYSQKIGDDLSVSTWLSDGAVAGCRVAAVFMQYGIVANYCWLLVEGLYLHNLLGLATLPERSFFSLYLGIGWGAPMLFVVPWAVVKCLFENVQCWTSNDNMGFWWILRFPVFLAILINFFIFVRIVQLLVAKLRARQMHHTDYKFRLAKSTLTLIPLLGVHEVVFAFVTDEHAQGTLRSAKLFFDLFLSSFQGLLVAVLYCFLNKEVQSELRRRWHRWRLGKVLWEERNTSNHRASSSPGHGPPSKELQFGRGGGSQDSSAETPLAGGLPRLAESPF

B1: Peptide 119 (peptide)
peptide: HSQGS[αMeF]TSDVSKILDSK([PEG2′-PEG2′-γGlu-γGlu-Myristoyl])AAQD[αMeF]VQ[Aib]IINT-NH2
As to B1, the “hGLP-1R EC50 (pM)” value in test [1] is 1.39 pM. The “hGluc-R EC50 (pM)” value in test [2] was determined as 1.7 pM.

B2: Peptide 13 (peptide)
peptide: H[Aib]HGS[αMeF]TSDVSK[αMeF]LDSK([AEEA-AEEA-γGlu-C18 diacid])AARD[αMeF]VQ[Aib]IANT-NH2
modifications: N-terminus assumed
SMILES: CC[C@H](C)[C@H](NC(=O)C(C)(C)NC(=O)[C@H](CCC(N)=O)NC(=O)[C@@H](NC(=O)[C@](C)(Cc1ccccc1)NC(=O)[C@H](CC(=O)O)NC(=O)[C@H](CCCNC(=N)N)NC(=O)[C@H](C)NC(=O)[C@H](C)NC(=O)[C@H](CCCCNC(=O)COCCOCCNC(=O)COCCOCCNC(=O)CC[C@H](NC(=O)CCCCCCCCCCCCCCCCC(=O)O)C(=O)O)NC(=O)[C@H](CO)NC(=O)[C@H](CC(=O)O)NC(=O)[C@H](CC(C)C)NC(=O)[C@](C)(Cc1ccccc1)NC(=O)[C@H](CCCCN)NC(=O)[C@H](CO)NC(=O)[C@@H](NC(=O)[C@H](CC(=O)O)NC(=O)[C@H](CO)NC(=O)[C@@H](NC(=O)[C@](C)(Cc1ccccc1)NC(=O)[C@H](CO)NC(=O)CNC(=O)[C@H](Cc1c[nH]cn1)NC(=O)C(C)(C)NC(=O)[C@@H](N)Cc1c[nH]cn1)[C@@H](C)O)C(C)C)C(C)C)C(=O)N[C@@H](C)C(=O)N[C@@H](CC(N)=O)C(=O)N[C@H](C(N)=O)[C@@H](C)O
For B2, the “hGLP-1R EC50 (pM)” value in test [1] amounted to 15.9 pM. For the same molecule, the “hGluc-R EC50 (pM)” value in test [2] came out at 44 pM.

B3: Peptide 128 (peptide)
peptide: H[Aib]QGS[αMeF]TSDVSKILDSK([PEG2′-PEG2′-γGlu-Palmitoyl])AAQD[αMeF]VQ[Aib]IINT-NH2
For the molecule B3, the “hGLP-1R EC50 (pM)” value in test [1] amounted to 0.788 pM. The “hGluc-R EC50 (pM)” value in test [2] came to 4.7 pM.

B4: Peptide 110 (peptide)
peptide: HSQGS[αMeF]TSDVSK(Ac)[Aib]LDSK([PEG2′-PEG2′-γGlu-γGlu-Stearyl])AAQD[αMeF]VQ[Aib]IAN-NH2
For B4, in test [1], the “hGLP-1R EC50 (pM)” value came to 0.627 pM. In test [2], the “hGluc-R EC50 (pM)” value was found to be 48.5 pM.

B5: Peptide 15 (peptide)
peptide: H[Aib]HGS[αMeF]TSDVSK[αMeF]LDSK([AEEA-AEEA-γGlu-C18 diacid])AARD[αMeF]VE[Aib]IANT-NH2
modifications: N-terminus assumed
SMILES: CC[C@H](C)[C@H](NC(=O)C(C)(C)NC(=O)[C@H](CCC(=O)O)NC(=O)[C@@H](NC(=O)[C@](C)(Cc1ccccc1)NC(=O)[C@H](CC(=O)O)NC(=O)[C@H](CCCNC(=N)N)NC(=O)[C@H](C)NC(=O)[C@H](C)NC(=O)[C@H](CCCCNC(=O)COCCOCCNC(=O)COCCOCCNC(=O)CC[C@H](NC(=O)CCCCCCCCCCCCCCCCC(=O)O)C(=O)O)NC(=O)[C@H](CO)NC(=O)[C@H](CC(=O)O)NC(=O)[C@H](CC(C)C)NC(=O)[C@](C)(Cc1ccccc1)NC(=O)[C@H](CCCCN)NC(=O)[C@H](CO)NC(=O)[C@@H](NC(=O)[C@H](CC(=O)O)NC(=O)[C@H](CO)NC(=O)[C@@H](NC(=O)[C@](C)(Cc1ccccc1)NC(=O)[C@H](CO)NC(=O)CNC(=O)[C@H](Cc1c[nH]cn1)NC(=O)C(C)(C)NC(=O)[C@@H](N)Cc1c[nH]cn1)[C@@H](C)O)C(C)C)C(C)C)C(=O)N[C@@H](C)C(=O)N[C@@H](CC(N)=O)C(=O)N[C@H](C(N)=O)[C@@H](C)O
For B5, the “hGLP-1R EC50 (pM)” value in test [1] turned out to be 33.1 pM. Also, the “hGluc-R EC50 (pM)” value in test [2] was found to be 61.4 pM.

B6: Peptide 14 (peptide)
peptide: H[Aib]HGS[αMeF]TSDVSK[αMeF]LDSK([AEEA-AEEA-γGlu-γGlu-C20 diacid])AARD[αMeF]VQ[Aib]IANT-NH2
modifications: N-terminus assumed
SMILES: CC[C@H](C)[C@H](NC(=O)C(C)(C)NC(=O)[C@H](CCC(N)=O)NC(=O)[C@@H](NC(=O)[C@](C)(Cc1ccccc1)NC(=O)[C@H](CC(=O)O)NC(=O)[C@H](CCCNC(=N)N)NC(=O)[C@H](C)NC(=O)[C@H](C)NC(=O)[C@H](CCCCNC(=O)COCCOCCNC(=O)COCCOCCNC(=O)CC[C@H](NC(=O)CC[C@H](NC(=O)CCCCCCCCCCCCCCCCCCC(=O)O)C(=O)O)C(=O)O)NC(=O)[C@H](CO)NC(=O)[C@H](CC(=O)O)NC(=O)[C@H](CC(C)C)NC(=O)[C@](C)(Cc1ccccc1)NC(=O)[C@H](CCCCN)NC(=O)[C@H](CO)NC(=O)[C@@H](NC(=O)[C@H](CC(=O)O)NC(=O)[C@H](CO)NC(=O)[C@@H](NC(=O)[C@](C)(Cc1ccccc1)NC(=O)[C@H](CO)NC(=O)CNC(=O)[C@H](Cc1c[nH]cn1)NC(=O)C(C)(C)NC(=O)[C@@H](N)Cc1c[nH]cn1)[C@@H](C)O)C(C)C)C(C)C)C(=O)N[C@@H](C)C(=O)N[C@@H](CC(N)=O)C(=O)N[C@H](C(N)=O)[C@@H](C)O
B6: the “hGLP-1R EC50 (pM)” value in test [1] came out at 93.8 pM. Also, the “hGluc-R EC50 (pM)” value in test [2] was 462 pM.

B7: Peptide 125 (peptide)
peptide: H[Aib]QGS[αMeF]TSDVSKILDSK([PEG2′-PEG2′-γGlu-γGlu-Palmitoyl])AAQD[αMeF]VQ[Aib]IINT-NH2
As to B7, the “hGLP-1R EC50 (pM)” value in test [1] turned out to be 0.575 pM. Moreover, the “hGluc-R EC50 (pM)” value in test [2] was found to be 6.68 pM.

B8: Peptide 129 (peptide)
peptide: H[Aib]QGS[αMeF]TSDVSKILDSK([PEG2′-PEG2′-γGlu-Myristoyl])AAQD[αMeF]VQ[Aib]IINT-NH2
In the case of B8, the “hGLP-1R EC50 (pM)” value in test [1] was 0.462 pM. Besides, in test [2], the “hGluc-R EC50 (pM)” value came out at 4.1 pM.

B9: Peptide 127 (peptide)
peptide: H[Aib]QGS[αMeF]TSDVSKILDSK([PEG2′-PEG2′-γGlu-Stearoyl])AAQD[αMeF]VQ[Aib]IINT-NH2
In the case of B9, the “hGLP-1R EC50 (pM)” value in test [1] was 0.998 pM. In test [2], the “hGluc-R EC50 (pM)” value was determined as 12.6 pM.

B10: Peptide 122 (peptide)
peptide: HSQGS[αMeF]TSDVSKILDSK([PEG2′-PEG2′-γGlu-Myristoyl])AAQD[αMeF]VQ[Aib]IINT-NH2
Consider B10, for which the “hGLP-1R EC50 (pM)” value in test [1] was 1.42 pM. The “hGluc-R EC50 (pM)” value in test [2] was determined as 0.857 pM.

B11: Peptide 120 (peptide)
peptide: HSQGS[αMeF]TSDVSKILDSK([PEG2′-PEG2′-γGlu-Stearoyl])AAQD[αMeF]VQ[Aib]IINT-NH2
B11: the “hGLP-1R EC50 (pM)” value in test [1] turned out to be 1.81 pM. Moreover, the “hGluc-R EC50 (pM)” value in test [2] came out at 2.62 pM.

B12: Peptide 1 (peptide)
peptide: HSQGS[αMeF]TSDVSK[Aib]LDSK([AEEA-AEEA-γGlu-C18 diacid])AAQD[αMeF]VQ[Aib]IAN-NH2
modifications: N-terminus assumed
SMILES: CC[C@H](C)[C@H](NC(=O)C(C)(C)NC(=O)[C@H](CCC(N)=O)NC(=O)[C@@H](NC(=O)[C@](C)(Cc1ccccc1)NC(=O)[C@H](CC(=O)O)NC(=O)[C@H](CCC(N)=O)NC(=O)[C@H](C)NC(=O)[C@H](C)NC(=O)[C@H](CCCCNC(=O)COCCOCCNC(=O)COCCOCCNC(=O)CC[C@H](NC(=O)CCCCCCCCCCCCCCCCC(=O)O)C(=O)O)NC(=O)[C@H](CO)NC(=O)[C@H](CC(=O)O)NC(=O)[C@H](CC(C)C)NC(=O)C(C)(C)NC(=O)[C@H](CCCCN)NC(=O)[C@H](CO)NC(=O)[C@@H](NC(=O)[C@H](CC(=O)O)NC(=O)[C@H](CO)NC(=O)[C@@H](NC(=O)[C@](C)(Cc1ccccc1)NC(=O)[C@H](CO)NC(=O)CNC(=O)[C@H](CCC(N)=O)NC(=O)[C@H](CO)NC(=O)[C@@H](N)Cc1c[nH]cn1)[C@@H](C)O)C(C)C)C(C)C)C(=O)N[C@@H](C)C(=O)N[C@@H](CC(N)=O)C(N)=O
As for B12, the “hGLP-1R EC50 (pM)” value in test [1] turned out to be 3200 pM. In test [2], the “hGluc-R EC50 (pM)” value is above 27100 pM.

B13: Peptide 118 (peptide)
peptide: HSQGS[αMeF]TSDVSKILDSK([PEG2′-PEG2′-γGlu-γGlu-Palmitoyl])AAQD[αMeF]VQ[Aib]IINT-NH2
Consider B13, for which the “hGLP-1R EC50 (pM)” value in test [1] is 1.07 pM. Also, the “hGluc-R EC50 (pM)” value in test [2] is 1.2 pM.

B14: Peptide 111 (peptide)
peptide: HSQGS[αMeF]TSDVSKILDSKAAQD[αMeF]VQ[Aib]IAN-NH2
modifications: not fully specified (residue 17)
With B14, the “hGLP-1R EC50 (pM)” value in test [1] turned out to be 1.92 pM. Moreover, the “hGluc-R EC50 (pM)” value in test [2] amounted to 2.09 pM.

B15: Peptide 109 (peptide)
peptide: HSQGS[αMeF]TSDVSK(Ac)[Aib]LDSK([AEEA-AEEA-γGlu-C18 diacid])AAQD[αMeF]VQ[Aib]IAN-NH2
modifications: N-terminus assumed
SMILES: CC[C@H](C)[C@H](NC(=O)C(C)(C)NC(=O)[C@H](CCC(N)=O)NC(=O)[C@@H](NC(=O)[C@](C)(Cc1ccccc1)NC(=O)[C@H](CC(=O)O)NC(=O)[C@H](CCC(N)=O)NC(=O)[C@H](C)NC(=O)[C@H](C)NC(=O)[C@H](CCCCNC(=O)COCCOCCNC(=O)COCCOCCNC(=O)CC[C@H](NC(=O)CCCCCCCCCCCCCCCCC(=O)O)C(=O)O)NC(=O)[C@H](CO)NC(=O)[C@H](CC(=O)O)NC(=O)[C@H](CC(C)C)NC(=O)C(C)(C)NC(=O)[C@H](CCCCNC(C)=O)NC(=O)[C@H](CO)NC(=O)[C@@H](NC(=O)[C@H](CC(=O)O)NC(=O)[C@H](CO)NC(=O)[C@@H](NC(=O)[C@](C)(Cc1ccccc1)NC(=O)[C@H](CO)NC(=O)CNC(=O)[C@H](CCC(N)=O)NC(=O)[C@H](CO)NC(=O)[C@@H](N)Cc1c[nH]cn1)[C@@H](C)O)C(C)C)C(C)C)C(=O)N[C@@H](C)C(=O)N[C@@H](CC(N)=O)C(N)=O
In the case of B15, the “hGLP-1R EC50 (pM)” value in test [1] is 698 pM. In addition, the “hGluc-R EC50 (pM)” value in test [2] is above 26800 pM.

B16: Peptide 121 (peptide)
peptide: HSQGS[αMeF]TSDVSKILDSK([PEG2′-PEG2′-γGlu-Palmitoyl])AAQD[αMeF]VQ[Aib]IINT-NH2
Regarding B16, the “hGLP-1R EC50 (pM)” value in test [1] amounted to 1.5 pM. For the same molecule, the “hGluc-R EC50 (pM)” value in test [2] is 1.2 pM.

Source of the values: patent US20230357348A1 (AstraZeneca / MedImmune, published 2023).
